The source of these data is article PMC2743173 (Neuron, 2008).

The target in test [1] is LRP4N-Myc (UniProt Q9QYP1). Nature of the test: ELISA.
The target in test [2] is LRP4N-Myc (UniProt Q9QYP1 21-1723). Briefly: ELISA.
Sequence of LRP4N-Myc (UniProt Q9QYP1 21-1723) (Q9QYP1 21-1723): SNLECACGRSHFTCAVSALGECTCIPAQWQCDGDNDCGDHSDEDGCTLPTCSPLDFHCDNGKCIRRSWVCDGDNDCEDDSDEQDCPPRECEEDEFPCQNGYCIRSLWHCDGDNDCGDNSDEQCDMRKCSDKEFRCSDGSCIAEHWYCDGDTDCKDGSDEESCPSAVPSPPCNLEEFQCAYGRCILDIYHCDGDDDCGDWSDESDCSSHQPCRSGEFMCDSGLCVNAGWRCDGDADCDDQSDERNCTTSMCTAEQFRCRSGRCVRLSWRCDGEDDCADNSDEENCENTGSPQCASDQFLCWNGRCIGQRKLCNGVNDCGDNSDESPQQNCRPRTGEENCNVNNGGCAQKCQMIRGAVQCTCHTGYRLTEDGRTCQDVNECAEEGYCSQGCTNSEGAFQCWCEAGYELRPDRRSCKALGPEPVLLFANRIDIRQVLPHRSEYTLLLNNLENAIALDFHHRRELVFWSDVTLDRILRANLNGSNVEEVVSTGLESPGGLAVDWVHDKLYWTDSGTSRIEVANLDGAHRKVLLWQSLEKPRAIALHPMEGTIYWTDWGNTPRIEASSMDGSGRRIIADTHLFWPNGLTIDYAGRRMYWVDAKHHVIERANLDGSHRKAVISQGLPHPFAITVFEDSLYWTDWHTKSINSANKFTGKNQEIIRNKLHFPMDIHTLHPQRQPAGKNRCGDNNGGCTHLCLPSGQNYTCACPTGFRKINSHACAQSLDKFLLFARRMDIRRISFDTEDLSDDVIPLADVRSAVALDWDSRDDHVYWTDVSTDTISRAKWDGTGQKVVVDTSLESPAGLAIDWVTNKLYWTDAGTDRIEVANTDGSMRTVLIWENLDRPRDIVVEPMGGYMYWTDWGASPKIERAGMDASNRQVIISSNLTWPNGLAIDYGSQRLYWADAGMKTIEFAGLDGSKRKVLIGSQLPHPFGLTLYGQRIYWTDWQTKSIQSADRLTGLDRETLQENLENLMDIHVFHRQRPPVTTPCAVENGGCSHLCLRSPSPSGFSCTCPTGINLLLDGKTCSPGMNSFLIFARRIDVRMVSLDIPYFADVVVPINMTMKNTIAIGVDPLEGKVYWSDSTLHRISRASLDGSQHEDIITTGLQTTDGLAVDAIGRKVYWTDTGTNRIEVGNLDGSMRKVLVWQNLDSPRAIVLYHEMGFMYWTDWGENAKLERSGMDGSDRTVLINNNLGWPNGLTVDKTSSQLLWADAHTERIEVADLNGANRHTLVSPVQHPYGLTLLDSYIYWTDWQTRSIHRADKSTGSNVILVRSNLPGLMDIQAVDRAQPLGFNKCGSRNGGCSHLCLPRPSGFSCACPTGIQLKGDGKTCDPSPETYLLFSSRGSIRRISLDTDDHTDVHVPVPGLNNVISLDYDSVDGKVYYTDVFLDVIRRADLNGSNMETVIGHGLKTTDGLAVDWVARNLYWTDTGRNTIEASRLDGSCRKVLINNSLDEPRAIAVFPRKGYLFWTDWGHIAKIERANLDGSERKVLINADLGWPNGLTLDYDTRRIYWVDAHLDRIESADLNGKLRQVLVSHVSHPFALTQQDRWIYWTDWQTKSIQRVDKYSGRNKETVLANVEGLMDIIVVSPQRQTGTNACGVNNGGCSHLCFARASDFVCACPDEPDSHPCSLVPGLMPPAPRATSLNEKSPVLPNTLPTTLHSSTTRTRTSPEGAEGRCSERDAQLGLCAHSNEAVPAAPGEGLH

Sequence of LRP4N-Myc (UniProt Q9QYP1) (Q9QYP1 21-1723): as above

As to nAgrin-AP (domain or fragment), the Kd (in general, the equilibrium constant for the complex coming apart) with LRP4N-Myc [1] came to 0.5 nM.

B1: MuSK-AP (domain or fragment)
chain: EKLPKAPVITTPLETVDALVEEVATFMCAVESYPQPEISWTRNKILIKLFDTRYSIRENGQLLTILSVEDSDDGIYCCIANNGVGGAVESCGALQVKMKPKITRPPINVKIIEGLKAVLPCTTMGNPKPSVSWIKGDNALRENSRIAVLESGSLRIHNVQKEDAGQYRCVAKNSLGTAYSKLVKLEVEVFARILRAPESHNVTFGSFVTLRCTAIGIPVPTISWIENGNAVSSGSIQESVKDRVIDSRLQLFITKPGLYTCIATNKHGEKFSTAKAAATVSIAEWSKSQKDSQGYCAQYRGEVCDAVLAKDALVFFNTSYRDPEDAQELLIHTAWNELKAVSPLCRPAAEALLCNHLFQECSPGVVPTPMPICREYCLAVKELFCAKEWQAMEGKAHRGLYRSGMHLLPVPECSKLPSMHRDPTACTRLPYLDYKKENITTFPSITSSRPSADIPNLPASTSSFAVSPAYSMT
As for B1, in the test with LRP4N-Myc [2], the Kd was determined as 0.45 ± 0.041 nM.
